# Laboratory results: the DeepSol protein solubility set
# Experiment: soluble on expression in E. coli; label from the status in PepcDB or PDB records
row,Sequence,soluble on expression in E. coli
1,MCSKQSANQQISYRQTAEATLDKGMDNQPEAPYWFPKQLLKWQLSKDKAAKYNTASVPLAKRIDKWQLPTVNKTQDPKMKVVALSIMNSSTSGNAPRGINTFDANVFSNWQYIDQLVYWGGSAGEGLIVPPTADVIDSAHKNGVPVLGTVFFPQVVSGGKLKWLNDFLKQDADGHFPMADKLVAVAKAYGFDGWFINQETDPEVKSFDSASTGKTATSSTSNGLSKKHAQLMQQLIKEYKQKAGSKLDLMWYDSMTKDGKMDWQNALTKENQSYLVDANMKPVADSMFLNFWWTKKRLASQELLKKSHERAEKLGISPYNLFAGIDVQADGTATPVRWNLFANKQHVPYTSLGLYAPDWTHASSDTVDEFQAKEGALWVNDQNDPSRSIPSTTSTHWPGVSTYAVEQSAITKQPFVTNFSLGNGYNYFIKLEHHHHHH,not soluble
2,MCSVKPKYISLPEQNSLCSLPNSGCCQVEVKIGRSKWEQQKAILVKVDGEPAGKIFIYSQPLIGQMYPLHELKSMGVICEKAGDFLVNLVTERGLKLTFKPIGSTANCFVTALVSGNFTSLTHETHIKTPLQNQEATTSPTIESDLTDKPDTNVYTGSREGYVAPSEKGSNEKKKEVVPNGGDKSVENKKGSDRNVKKTPSKTVTKPLLSESRKRKEAKTLATTQSQDLPAPTKDEPERTNSEPDNGEQEKIKKEKKKGTETSLKDGKNKLNEKIVKPAPTTTPDAGNGGLTPGKEDNKKTVTTSSVEIEVPEKKKAVENAGIIKIS,not soluble
3,MCTGFTIQTLNNQVLLGRTMDYDYPLDGSPAVTPRNYRWKSRTGTTGQTQYGFIGTGTDMEGFIYGDGVNEHGVAISTQYFRGYSSYGSTHKADAMNITQNEIVTWILVYTTSIEDMKQQASQIHVVAVYLNDIGEVPPLHYHVSDATGHTVEVSFKEGEVVIKDNPIGVLTNHPDLNWHYSNLRQYINISPYPATANLLEGVTIEPLGNEAGTFGLPGGFTSTERFVRMTFMKANIAQNNDKEMDLMNAFYLLDAVNIPIGIVRPHDADNHYTMYQTVINLTTRTLYIKYYGSNELVALKLTDDLINRKDMTIFKPEKHITIRKLNDNQ,not soluble
4,MDADMDYERPNVETIKCVVVGDNAVGKTRLICARACNTTLTQYQLLATHVPTVWAIDQYRVCQEVLERSRDVVDEVSVSLRLWDTFGDHHKDRRFAYGRSDVVVLCFSIANPNSLNHVKSMWYPEIKHFCPRTPVILVGCQLDLRYADLEAVNRARRPLARPIKRGDILPPEKGREVAKELGLPYYETSVFDQFGIKDVFDNAIRAALISRRHLQFWKSHLKKVQKPLLQAPFLPPKAPPPVIKIPECPSMGTNEAACLLDNPLCADVLFILQDQEHIFAHRIYLATSSSKFYDLFLMECEESPNGSEGACEKEKQSRDFQGRILSVDPEEEREEGPPRIPQADQWKSSNKSLVEALGLEAEGAVPETQTLTGWSKGFIGMHREMQVNPISKRMGPMTVVRMDASVQPGPFRTLLQFLYTGQLDEKEKDLVGLAQIAEVLEMFDLRMMVENIMNKEAFMNQEITKAFHVRKANRIKECLSKGTFSDVTFKLDDGAISAHKPLLICSCEWMAAMFGGSFVESANSEVYLPNINKISMQAVLDYLYTKQLSPNLDLDPLELIALANRFCLPHLVALAEQHAVQELTKAATSGVGIDGEVLSYLELAQFHNAHQLAAWCLHHICTNYNSVCSKFRKEIKSKSADNQEYFERHRWPPVWYLKEEDHYQRVKREREKEDIALNKHRSRRKWCFWNSSPAVA,soluble
5,MDAELFPRSRAQVAPDAVHVPDWADAGRQRRFLAACRDWARPPAGLRTVHTPGGGTMTSRQVCLGWHWYPYGYARTVVDGDGAPVKPLPDWLAELGRDAVSDALGPQAVPPVPYDIALINFYGADARMGMHRDSDEKSGAPVVSLSVGDTCVFRFGNARTRTRPYTDVELRSGDLFVFGGASRLAYHGVPRVYADTAPPELGLVGRLNITLRVSGFQDPSGE,not soluble
6,MDAENRVIINVGGIRHETYKATLKKIPATRLSRLTEGMLNYDPVLNEYFFDRHPGVFAQIINYYRSGKLHYPTDVCGPLFEEELEFWGLDSNQVEPCCWMTYTAHRDTQETLAVL,soluble
7,MDAGDASRLGESLDAVSAAFQSRVMELQELVLARNMYPATAIPDLAAVDVSLTAMEAQLQAVRRRLQEEREAFPKAKKLVQQSLKQQRRLQLMLANMPTGMREDVFATPLEHNSSMMFPESLNFSSAVPEVRDHDLKIKEEPTAPPKKKGRGPAPRWYISTEELDSLSSYMRGRLTLEKVNIAINEVASYADGNAHLVACPKKKLSEDTWEKALELRDIAARESVKGRHFFLETDIKGPGLKLDTTGKAILTVRASTIMLYMLPLKLPYWIE,soluble
8,MDANEKKEVIKKRFQEIAMSGGTCCSGGGCCGDSSSSDISRAIGYSEADIEAVPDANMGLGCGNPASIAELKPGDIVLDLGSGAGFDCFLAAQKVGNSGKVIGVDMTPEMVEKVQANARKYGYSNVEFRQGDIEALPVEDSSVDVIISNCVINLAPDKEKVFREAFRVLKLGGRLYISDLVLLDELPEDLKNDRDLLAGCVAGAVLKEEYLKLLKRAGFSVEILAEDPDISKSQYKGLPVESLKLKAWVLEHHHHHH,soluble
9,MDAVQDPAAGSLSRSRIVPPQVPAEYSLRPAIRNLLDRNPHSRVLMFSAPAGFGKTCALAALARERTVADQAVAWLSLAEEDDDPARFCRQLIEALGEAVPQLGDDAQTYLQNTMRVPVVAVIESLLGDLDRYARPLLLVLDDLHLVSNPDIFTGLNRLVQYAPPGLVLALGTRSQPALSLATWRAKGLLLEIGLEELRLGFEETREYLERSGLYLDEPCLKALYGQTEGWVVGVHLVSLWLRQQPQVQEMALLDGDKQAVSAYLLAAVFERLPGDLQEALLALGVASQLSGDLANALTGRQ,not soluble
10,MDCQIGSRRCATWDEIEDAPQTKRLREDKVQENVPQQSVQPAPPPPAAQQAPAPAEQPKFYISAPIQGFTVNNQGGCRYLFF,not soluble
11,MDDSTLRRKYPHHEWHAVNEGDSGAFVYQLTGGPEPQPELYAKIAPRAPENSAFDLSGEADRLEWLHRHGIPVPRVVERGADDTAAWLVTEAVPGVAAAEEWPEHQRFAVVEAMAELARALHELPVEDCPFDRRLDAAVAEARRNVAEGLVDLDDLQEERAGWTGDQLLAELDRTRPEKEDLVVCHGDLCPNNVLLDPGTCRVTGVIDVGRLGVADRHADIALAARELEIDEDPWFGPAYAERFLERYGAHRVDKEKLAFYQLLDEFF,not soluble
12,MDDVLRRNPLFAALDDEQSAELRASMSEVTLARGDTLFHEGDPGDRLYVVTEGKVKLHRTSPDGRENMLAVVGPSELIGELSLFDPGPRTATGTALTEVKLLALGHGDLQPWLNVRPEVATALLRAVARRLRKTNDAMSDLVFSD,soluble
13,MDDYVPIPFTLLKLPQKSIDVVLRRMCIEALVELSFTSKAAMQQTKHLGIKTERFIIAINSNEILIDVSGCRDFRFYTFECSTPSHHTVQKPIRVHVGFRGERWETPFFGVRQFLNHLMEIFHQTKLDSLHISTADPECSNELKGMEFGWLSMMSMTSDNNSSQDEDALRQFSGKTDSICLNRNPFSIEPSKQMQMILTRNMNVVSTKCDLNDVFVTNARSFTAFLKIEDVNIFLKHWMHRSDRKLKSAWFDLDAFRWDVEDVLEPLFKGIAYHVAPADREFIVHLPKKLSGCGDYRVIGGYDVRRNDGMTATIIVADRANVFLKMFFWI,not soluble
14,MDEDIICVGCGAILQSDDPKKAGYLPKSALDKAKREENTDVYCQRCFRLRHYNEIMPVDLNNDDFLALLNSLSEKKALVVNVVDLFDFSNSLLSSLKRFVGNNDFILVGNKFDLFPKNSKQSKIKDWMRQEANRMGLYPKDIFLVSAKKKVNLESLISYINDHSQDKDVYFVGTTNVGKSTLINAIIDMMGDIQDLITTSRFPGTTLDQIEIPLENGHFLIDTPGIMTDNQLATHLNAKDLELVSPKKPLKPATYQLLPGNTLFLAGLGRIDFLKGESTSFTVYVARDMYVHRTKTANADAFYEKHKGELLTPPSADDQMAPLKGKEFRTDYKSDLLFGGIGFVTVPKGCVVKTYTPDGIGLGIRRALILEHHHHHH,soluble
15,MDEGDKKSPISQVHEIGIKRNMTVHFKVLREEGPAHMKNFITACIVGSIVTEGEGNGKKVSKKRAAEKMLVELQKL,soluble
16,MDELMFFRGMAPDPTSYDRVFKFLIFGGKSVGKKTLLRSFCTEGDNESIWTSLTVDDEKVLIEATVSQKWEEGMSKEHDAIALVFSTTDVYSFEYTLELYNEIQKSTERIPLVFIENKIDIVEDSQMDKGLVEGEMRKKHKRLYRVSALKEFNVMHPFAYLIEKLTRQKKDLNANESVSENSLRL,not soluble
17,MDERDALRISREIAGEVRKAIASMPLRERVKDVGMGKDGTPTKAADRVAEDAALEILRKERVTVVTEESGVLGEGDVFVALDPLDGTFNATRGIPVYSVSLCFSYSDKLKDAFFGYVYNLATGDEYYADSSGAYRNGERIEVSDAEELYCNAIIYYPDRKFPFKRMRIFGSAATELCFFADGSFDCFLDIRPGKMLRIYDAAAGVFIAEKAGGKVTELDGESLGNKKFDMQERLNIVAANEKLHPKLLELIK,soluble
18,MDERPVLFFDSGIGGLTVLREVRSLIPEKQFIYVADDVGFPYGNWEENVLKNRILKIFTNLLTVYNPALCVIACNTVSTLMIADLRERFPHILFVGTVPAIKLAAEQTKSGFISVLATPGTVKRTYTHELINSFAGQCHVQLVGSEKLAGFAENYLRGQSVDLEELRNEILPCFVKKNGKHTDIIVLACTHYPFLLHFFREQALWHVQWIDPSKAIAKRTRSLLPQRIHHQTVKKYEDFALFTSQNITSSTKRLLKEFSLNITKGVDFKV,not soluble
19,MDFHIRKATNSDAEAIQHVATTSWHHTYQDLIPSDVQDDFLKRFYNVETLHNRISATPFAVLEQADKVIGFANFIELEKGKSELAAFYLLPEVTQRGLGTELLEVGMTLFHVPLPMFVNVEKGNETAIHFYKAKGFVQVEEFTEDFYGYPLETIRFNLNHHAFEEE,not soluble
20,MDFKQHIAIVPDYPKEGIVFKDITPLMNDGKAYKAATDAIVEYAKERDIDLVVGPEARGFIIGCPVSYALEVGFAPVRKLGKLPREVITVDYGKEYGKDVLTIHKDAIKPGQRVLITDDLLATGGTIEATIKLVEELGGVVAGIAFLVELTYLDGRKMLDGYDVLVLEKY,not soluble
21,MDFVHCNKCFNRKPPDGFFISSCFHIFCTKCAKADLAVCLICKKNVRLVRLDGNISSGIKIYFADPIKMVADSLAKIQKKIDFQQSTRDHLVKYLTKEKEKKRQMEVYFRTKGQEFDSQRKKLAEATAWIQMAEKKLQASEEERVKAEREIEECQAKLKSMTNLMSADTLGMNSQTPFPFSLAESQETAPSLVESSANSTFNMVSPLVSSPASSPNSINYNSFFENGSRTRPESLNEEAMFNTMSSGQSANANTSESSAFSVAFNNIFTPSRNNMGDSSMINKTTANQTIMDKTSMSLENWRQNRANSFGVHDISKRDSSLPTGGGSAIRVHHFKQNSRITPIAQNRRSAAGFDRQQIQEMRRISSQPGYLAQRKPINGRSFIGPAD,not soluble
22,MDGYEEYTVLKEWEKTHKNEEIYSIRFGGNYMIDMKDGIKLSTDVYLPDFVDSAKKAPTILMRTPYGKENDKEIYYKYVQRGYAVVIQDVRGRNESEGKWEPMIHEREDGDSTINWIVSQEWSSGIVGMLGASYLGYVQWAAASSGNKHLKALVSIVTSGSPFIDIPRKGGAFVSGMLAWAFMVSRNKVDRSKMVRDDWDDVLNIRPIENIPVEALGYRIEFLEEWLKRVEKDEYWDLMDWHLQKDKINVPALVVSGWYDDNSMGTTEALDVIKDYEKGKRKAILGPWMHNSNTLRDINGISLGNSSLRYDLDYNYLLWFDKYLKGIENNIDTTAPVEYYSVGSNKWKTEE,not soluble
23,MDHEIPVRIVDNQEYMKVVRSILEEGKEVPLVVTGNSMMPFLIDRRDQVLIKRIERPLKKGDIAFFQRENGQYIMHRIHFMRKDDRTGENQFYFIGDGQKNIEGPIKETRIFGVITGVLRKGKYLDEHTFTWRFFENIWRYVIPFRPLIIKIYSLFKR,not soluble
